Target: TmMre11 (TM1635) truncated construct, residues 1-324 (Thermotoga maritima) (UniProt Q9X1X0)
Experiment: crystal structure

For “TmMre11 (TM1635) truncated construct, residues 1-324 (from UniProt Q9X1X0 1-324) (domain or fragment)”, the stoichiometry N was 2.

— article PMC2839085
